Laboratory results as given in paper PMC9746958.

Target: leptin receptor (OBR-2K), fused to luciferase (OBR-2K Rluc) or to YFP (OBR-2K YFP) (UniProt P48357)
Experiment: FRET or BRET; HEK293T cells co-transfected with OBR-2K Rluc (donor) and OBR-2K YFP (acceptor); pre-treated with homocysteine (1-10 mM) for 4 h, then leptin (10 nM) for 30 min; coelenterazine h 20 uM; result in mBRET units

fold increase in BRET signal upon leptin stimulation: 3 fold
Substance: leptin receptor (OBR-2K), fused to luciferase (OBR-2K Rluc) or to YFP (OBR-2K YFP) (from UniProt P48357 22-1165)
